Laboratory results published in patent US20220033505A1.

Assays:
[1] = target: CD3 on human T cells (Jurkat cells, primary human T cells) (human) (UniProt P07766); test: flow cytometry; positive control scFv on human T cells, anti-His Alexa-647
[2] = target: CD3 on human T cells (Jurkat cells, primary human T cells) (human) (UniProt P07766); test: flow cytometry; 10 nM antibody on Jurkat cells (No Ab background 2075.61)

CD3 on human T cells (Jurkat cells, primary human T cells) (human), sequence (P07766 23-207): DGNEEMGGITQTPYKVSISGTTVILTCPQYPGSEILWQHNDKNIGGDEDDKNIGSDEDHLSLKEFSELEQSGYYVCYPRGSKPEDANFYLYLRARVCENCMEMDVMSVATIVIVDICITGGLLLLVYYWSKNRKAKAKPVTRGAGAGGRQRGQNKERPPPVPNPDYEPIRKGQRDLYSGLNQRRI

Row | MFI (n = 2) [1] | MFI (arbitrary units) (arbitrary units) [2] | Substance
1 | 99500 |  | CD3W36 (anti-CD3 antibody SP34 formatted as LH-scFv, positive control)
2 |  | 89200 | UCHT1 (anti-CD3 clone, positive control) (antibody)
